Assays:
[1] = biological target: T1, Source 1 VEGF-D, mature dimeric recombinant human VEGF-D (CSIRO) (human, UniProt O43915 89-205); assay: SPR Protocol B, KD against that of the murine antibody
T1 construct: Whole entry named; also called Source 1 VEGF-D dimer; VEGF-D dimer
T1 sequence: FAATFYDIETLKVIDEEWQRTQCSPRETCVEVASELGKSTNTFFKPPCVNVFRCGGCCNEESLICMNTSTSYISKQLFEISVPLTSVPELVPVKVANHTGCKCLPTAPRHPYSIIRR
Method: (§1) Protocol B: In the second assay format, Protocol B, the orientation of the IgGs and the VEGF-D antigen was reversed relative to Protocol A. The Source 1 VEGF-D dimer was immobilized directly on the chip surface by amine coupling and the murine anti-VEGF-D monoclonal antibody, Ig-1A or IgG variants flowed over this surface as analytes at concentrations of 4 nM, 1.33 nM, and 0.44 nM. This protocol allowed avidity effects to be controlled by reducing the density of dimeric VEGF-D immobilized on the chip and in effect reduce the bivalent binding properties of the system being analyzed.
All four flow cells on a CM5 chip were activated for 7 min at 25° C. using a mixture of NHS.EDC. Flow cell one was used as an unmodified (activated and blocked) reference against flow cells 2-4. […]
All IgG binding experiments were performed at 25° C. using HBS-EP+ running buffer. Analytes (murine reference anti-VEGF-D monoclonal antibody and humanized variants) were injected for 200 s at a flow rate of 70 μl/min and dissociation monitored for 250 s. […] Binding constants for the IgG/antigen interactions were determined from the three antigen surfaces globally fitted to a 1:1 interaction model. […]

[2] = biological target: T1, Source 1 VEGF-D, mature dimeric …; assay: SPR Protocol A, KD against that of the murine antibody
[3] = biological target: T1, Source 1 VEGF-D, mature dimeric …; assay: SPR Protocol B: VEGF-D dimer amine-coupled, IgG as analyte
Method: as §1
(§2) All four flow cells on a CM5 chip were activated for 7 min at 25° C. using a mixture of NHS.EDC. Flow cell one was used as an unmodified (activated and blocked) reference against flow cells 2-4. Source 1 VEGF-D dimer was diluted to 1-3 μg/ml into 10 mM sodium acetate, pH 4, and injected over three surfaces for different lengths of time to achieve low ligand densities of 10, 15 and 20 RU to minimize avidity effects of the IgG. All surfaces were blocked for 7 min with ethanolamine (1M, pH 8.2) and pre-conditioned using five 10 s injections of 100 mM H₃PO₄; 1M NaCl. Immobilization steps were carried out at a flow rate of 30 μl/min using HBS-N running buffer.
(§3) All IgG binding experiments were performed at 25° C. using HBS-EP+ running buffer. Analytes (murine reference anti-VEGF-D monoclonal antibody and humanized variants) were injected for 200 s at a flow rate of 70 μl/min and dissociation monitored for 250 s. The antigen surfaces were regenerated with a 10 s pulse of 100 mM H₃PO₄; 1M NaCl. Analyte concentrations used for murine and humanized variants were 4 nM, 1.33 nM, and 0.44 nM. Data was processed using the reference surface and double referencing from blank injections. Binding constants for the IgG/antigen interactions were determined from the three antigen surfaces globally fitted to a 1:1 interaction model. Refractive index parameter was constant (RI=0).

[4] = biological target: T1, Source 1 VEGF-D, mature dimeric …; assay: cell-based or functional assay
[5] = biological target: T2, Source 2 VEGF-D, purified recombinant human VEGF-D monomer (R&D Systems, Catalog Number 622-VD/CF) (human, UniProt O43915 93-201); assay: cell-based or functional assay
T2 sequence: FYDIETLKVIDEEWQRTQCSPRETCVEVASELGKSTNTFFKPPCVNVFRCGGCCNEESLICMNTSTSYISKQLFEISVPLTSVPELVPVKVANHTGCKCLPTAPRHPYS

[6] = biological target: T1, Source 1 VEGF-D, mature dimeric …; assay: SPR Protocol A, KD against that of Ig-1A
Method: (§4) Protocol A: The first assay format, Protocol A, used an assay system where IgGs were captured on a biosensor chip surface using an anti-human IgG (Fc) antibody and the Source 1 VEGF-D dimer run over the chip as the analyte in solution. This ensured that all IgG molecules were presented to the antigen in an active orientation.
(§5) The SPR protocol was slightly modified to compensate for the dimeric nature of the VEGF-D. Ig-1A or IgG variants were analyzed using an anti-human capture kit as described for Anti-human IgG (Fc) capture above, except that 1000 RU of the IgG or IgG variant was captured on the anti-human chip surface. […] The kinetics generated using this approach are accurate within the experimental parameters set. This standard assay protocol is best suited to studying 1:1 interactions and thus, may not be ideal for analyzing binding between the IgG variants and the VEGF-D dimer. In light of this, Protocol B was also used.

[7] = biological target: T1, Source 1 VEGF-D, mature dimeric …; assay: SPR Protocol B, KD against that of Ig-1A
Method: as §1, §2, §3

[8] = biological target: T1, Source 1 VEGF-D, mature dimeric …; assay: SPR Protocol A: IgG captured by anti-human Fc, VEGF-D dimer as analyte
Method: as §4, §5

[9] = biological target: T2, Source 2 VEGF-D, purified recombinant …; assay: SPR, IgG captured by anti-human IgG (Fc), Source 2 VEGF-D as analyte
[10] = biological target: T2, Source 2 VEGF-D, purified recombinant …; assay: SPR, IgG captured by anti-human IgG (Fc), Source 2 VEGF-D monomer as analyte
[11] = biological target: T1, Source 1 VEGF-D, mature dimeric …; assay: SPR, labelled Protocol B in this table
[12] = biological target: T1, Source 1 VEGF-D, mature dimeric …; assay: SPR; row labelled Protocol A (IgG captured by anti-human Fc, VEGF-D dimer as analyte); Protocol A line of Table 6
Method: as §4, §5

[13] = biological target: T1, Source 1 VEGF-D, mature dimeric …; assay: SPR, labelled Protocol A in this table; Protocol B by paragraph 399 and Table 7A, though printed as Protocol A

B1: humanized IgG antibody derived from clone HU75 (antibody, V domains shown)
VH: QVQLVQSGAEVKQPGASVKVSCKASGYTFTGYNMYWVRQAPGQGLEWMGYIDPYNGDTTYNQKFKGRVTMTTDTSTSTAYMKLRSLRSDDTAVYYCARTSYYGGMDYWGRGTLVTVAS
VL: DIVMTQTPLSGPVTLGQPASISCRSSQSLVHSNGNTYLHWLQQRPGQPPRLLIYKVSNRFSGVPDRFSGSGAGTDFTLKISRVEAEDVGVYYCSQSTHVPRTFGRGTKLEIKR
notes: IgG
- fold improvement over the original murine anti-VEGF-D monoclonal antibody [1]: 11.5 fold
- fold improvement over the original murine anti-VEGF-D monoclonal antibody [2]: 23.6 fold
- Kd [3]: 0.4 nM
- koff [3]: 0.0019 s⁻¹
- kon [3]: 4.8e+06 M⁻¹ s⁻¹
- rank in the VEGFR-3-Ba/F3 bioassay [4]: 7 rank
- rank in the VEGFR-3-Ba/F3 bioassay [5]: 5 rank
- Fold-improvement with respect to Ig-1A [6]: 5.5 fold
- Fold-improvement with respect to Ig-1A [7]: 4.4 fold
- Kd [8]: 0.127 nM
- koff [8]: 5.8e-05 s⁻¹
- kon [8]: 460000 M⁻¹ s⁻¹

B2: Ig-1A, humanized IgG reformatted from scFv 1A (antibody, V domains shown)
VH: QVQLVQSGAEVKQPGASVKVSCKASGYTFTGYNMYWVRQAPGQGLEWMGYIDPYNGDTTYNQKFKGRVTMTTDTSTSTAYMELRSLRSDDTAVYYCARTSYYGGMDYWGRGTLVTVAS
VL: DIVMTQTPLSSPVTLGQPASISCRSSQSLVHSNGNTYLHWLQQRPGQPPRLLIYKVSNRFSGVPDRFSGSGAGTDFTLKISRVEAEDVGVYYCSQSTHVPRTFGQGTKLEIKR
notes: IgG made in mammalian cells; also called humanized Ig-1A
- Kd [9]: 16.1 nM
- koff [9]: 0.00901 s⁻¹
- kon [9]: 494000 M⁻¹ s⁻¹
- Kd [10]: 9.2 nM
- koff [10]: 0.00678 s⁻¹
- kon [10]: 730000 M⁻¹ s⁻¹
- Kd [3]: 1.8 nM
- koff [3]: 0.0013 s⁻¹
- kon [3]: 720000 M⁻¹ s⁻¹
- Kd [11]: 0.7 nM
- koff [12]: 0.00059 s⁻¹
- kon [12]: 680000 M⁻¹ s⁻¹
- Kd [13]: 0.7 nM
- Kd [8]: 0.696 nM
- koff [8]: 0.00049 s⁻¹
- kon [8]: 710000 M⁻¹ s⁻¹

Reference: US20120093811A1 (published 2012)
